Assay results as given in patent publication US20170096652.

Target: transcription factor DdrO (Gene ID: 1798752; NP_296294.1) of Deinococcus radiodurans

B1: PprI protease (gene pprI, dr_0167; GeneID: 1798483; NCBI-GI: 15805204) of Deinococcus radiodurans (protein)
chain: MPSANVSPPCPSGVRGGGMGPKAKAEASKPHPQIPVKLPFVTAPDALAAAKARMRDLAAAYVAALPGRDTHSLMAGVPGVDLKFMPLGWRDGAFDPEHNVILINSAARPERQRFTLAHEIGHAILLGDDDLLSDIHDAYEGERLEQVIETLCNVAAAAILMPEPVIAEMLERFGPTGRALAELAKRAEVSASSALYALTEQTPVPVIYAVCAPGKPPREQAASDEDAGPSTEKVLTVRASSSTRGVKYTLASGTPVPADHPAALALATGMEVREESYVPFRSGRKMKAEVDAYPSRGIVAVSFEFDPARLGRKDSEQADRDEPQDAAQ
  PprI cleavage activity detected by Western blotting: PprI cleaves DdrO into two fragments
  protease activity in vitro, SDS-PAGE (40 minutes, 2.0 mM MnCl2): DdrO was cleaved by PprI into two fragments
  protease activity in vitro, SDS-PAGE (40 minutes, 3.0 mM MnCl2): DdrO was cleaved by PprI into two fragments
  protease activity in vitro, SDS-PAGE (40 minutes, 5.0 mM MnCl2): DdrO was cleaved by PprI into two fragments
